This test has as its target T1, GST-CARD9 (human, UniProt Q9H257 1-536).
T1 sequence (looked up): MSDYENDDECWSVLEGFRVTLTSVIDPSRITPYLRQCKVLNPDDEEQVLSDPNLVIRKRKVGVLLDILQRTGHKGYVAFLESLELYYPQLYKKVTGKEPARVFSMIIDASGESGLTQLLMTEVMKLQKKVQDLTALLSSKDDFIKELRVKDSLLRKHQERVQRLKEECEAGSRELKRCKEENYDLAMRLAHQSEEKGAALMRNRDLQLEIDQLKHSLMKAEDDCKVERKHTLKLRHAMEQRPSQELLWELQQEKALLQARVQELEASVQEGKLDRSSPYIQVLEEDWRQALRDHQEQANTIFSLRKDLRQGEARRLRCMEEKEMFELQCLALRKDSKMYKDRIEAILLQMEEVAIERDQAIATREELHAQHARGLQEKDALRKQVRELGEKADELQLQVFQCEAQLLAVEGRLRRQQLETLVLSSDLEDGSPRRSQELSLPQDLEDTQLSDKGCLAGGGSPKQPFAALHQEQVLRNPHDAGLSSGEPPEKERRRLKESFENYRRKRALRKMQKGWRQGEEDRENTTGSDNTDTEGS
The experiment in a line: ELISA. Background: An ELISA detects its analyte on a solid surface through an enzyme-linked reagent.

B1: purified FLAG-tagged CARD9 WT (natural protein, human, UniProt Q9H257 1-536, looked up)
chain: MSDYENDDECWSVLEGFRVTLTSVIDPSRITPYLRQCKVLNPDDEEQVLSDPNLVIRKRKVGVLLDILQRTGHKGYVAFLESLELYYPQLYKKVTGKEPARVFSMIIDASGESGLTQLLMTEVMKLQKKVQDLTALLSSKDDFIKELRVKDSLLRKHQERVQRLKEECEAGSRELKRCKEENYDLAMRLAHQSEEKGAALMRNRDLQLEIDQLKHSLMKAEDDCKVERKHTLKLRHAMEQRPSQELLWELQQEKALLQARVQELEASVQEGKLDRSSPYIQVLEEDWRQALRDHQEQANTIFSLRKDLRQGEARRLRCMEEKEMFELQCLALRKDSKMYKDRIEAILLQMEEVAIERDQAIATREELHAQHARGLQEKDALRKQVRELGEKADELQLQVFQCEAQLLAVEGRLRRQQLETLVLSSDLEDGSPRRSQELSLPQDLEDTQLSDKGCLAGGGSPKQPFAALHQEQVLRNPHDAGLSSGEPPEKERRRLKESFENYRRKRALRKMQKGWRQGEEDRENTTGSDNTDTEGS
For the molecule B1, the binding result is “binds”.

(Values after article PMC4672733 (Immunity, 2015).)
